Experimental data taken from patent publication US20140242080A1 (Hoffmann-La Roche, published 2014).

T1: cynomolgus MCSP D3 (cynomolgus, UniProt Q6UVK1 1582-2224 (human entry), limits assumed)
T1 construct: also called Cyno MCSP; cynomolgus homologue
T1 chain: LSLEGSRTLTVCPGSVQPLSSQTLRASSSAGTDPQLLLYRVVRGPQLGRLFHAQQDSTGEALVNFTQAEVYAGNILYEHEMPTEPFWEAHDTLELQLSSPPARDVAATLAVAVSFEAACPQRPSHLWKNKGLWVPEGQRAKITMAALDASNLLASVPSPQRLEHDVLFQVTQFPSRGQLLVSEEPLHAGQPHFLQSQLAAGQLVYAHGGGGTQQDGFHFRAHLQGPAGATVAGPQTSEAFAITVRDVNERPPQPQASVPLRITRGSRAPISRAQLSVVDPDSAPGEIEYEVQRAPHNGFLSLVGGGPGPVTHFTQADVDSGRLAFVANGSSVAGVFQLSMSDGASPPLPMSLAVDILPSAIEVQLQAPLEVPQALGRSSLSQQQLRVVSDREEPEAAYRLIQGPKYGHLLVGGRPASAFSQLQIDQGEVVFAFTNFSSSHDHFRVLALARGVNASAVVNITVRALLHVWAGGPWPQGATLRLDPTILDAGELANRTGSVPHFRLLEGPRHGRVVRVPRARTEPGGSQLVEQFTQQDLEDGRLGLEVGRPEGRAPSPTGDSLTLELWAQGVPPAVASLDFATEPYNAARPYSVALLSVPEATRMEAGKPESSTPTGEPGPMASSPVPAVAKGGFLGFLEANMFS

T2: hu-MCSP(D3 domain)-avi-his (human, UniProt Q6UVK1 1582-2224)
T2 construct: Recombinant D3 domain with avi and his tags; also called human MCSP(D3 domain)-avi-his; Human MCSP D3
T2 sequence: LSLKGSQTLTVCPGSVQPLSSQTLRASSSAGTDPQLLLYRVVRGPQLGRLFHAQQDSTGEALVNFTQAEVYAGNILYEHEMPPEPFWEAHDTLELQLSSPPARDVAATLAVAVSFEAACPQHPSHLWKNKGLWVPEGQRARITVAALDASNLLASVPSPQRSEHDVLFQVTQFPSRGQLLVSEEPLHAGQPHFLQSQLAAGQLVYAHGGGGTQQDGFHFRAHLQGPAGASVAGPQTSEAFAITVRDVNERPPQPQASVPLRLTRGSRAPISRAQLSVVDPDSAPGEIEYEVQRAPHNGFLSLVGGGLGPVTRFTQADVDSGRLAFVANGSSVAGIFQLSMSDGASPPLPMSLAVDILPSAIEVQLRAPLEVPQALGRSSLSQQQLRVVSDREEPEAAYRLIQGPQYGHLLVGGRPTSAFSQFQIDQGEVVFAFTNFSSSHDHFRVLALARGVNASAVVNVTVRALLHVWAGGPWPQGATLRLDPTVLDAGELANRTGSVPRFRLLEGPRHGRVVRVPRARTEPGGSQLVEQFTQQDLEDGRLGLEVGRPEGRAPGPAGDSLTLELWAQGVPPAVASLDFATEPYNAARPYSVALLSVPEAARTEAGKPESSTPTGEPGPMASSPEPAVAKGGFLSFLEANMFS

T3: human CEA expressed on tumor cells (LS-174T, A549-huCEA, MKN-45, MC38-huCEA, HPAFII, BxPC-3, ASPC-1) (human, UniProt P06731 35-685)
T3 sequence (looked up): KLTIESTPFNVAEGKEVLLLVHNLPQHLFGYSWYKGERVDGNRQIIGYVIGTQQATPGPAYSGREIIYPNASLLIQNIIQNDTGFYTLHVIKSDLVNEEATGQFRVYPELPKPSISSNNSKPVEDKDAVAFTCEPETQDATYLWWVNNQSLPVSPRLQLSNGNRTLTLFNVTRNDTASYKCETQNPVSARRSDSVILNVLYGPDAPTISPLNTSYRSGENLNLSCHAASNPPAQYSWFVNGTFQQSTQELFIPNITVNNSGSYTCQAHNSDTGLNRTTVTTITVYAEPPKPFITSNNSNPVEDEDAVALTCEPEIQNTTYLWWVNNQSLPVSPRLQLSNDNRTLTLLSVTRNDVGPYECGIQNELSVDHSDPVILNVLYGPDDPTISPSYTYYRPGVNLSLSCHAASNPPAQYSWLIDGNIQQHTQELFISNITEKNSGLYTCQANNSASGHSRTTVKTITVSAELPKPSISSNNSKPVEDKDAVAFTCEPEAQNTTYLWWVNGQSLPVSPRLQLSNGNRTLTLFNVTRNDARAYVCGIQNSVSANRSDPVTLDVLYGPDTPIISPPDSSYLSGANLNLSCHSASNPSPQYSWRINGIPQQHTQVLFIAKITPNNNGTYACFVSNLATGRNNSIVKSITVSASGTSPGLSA


Tests used:
cynomolgus MCSP D3 [1] = biological target: T1, cynomolgus MCSP D3; assay: SPR Biacore T200, 25 C; affinity: IgG captured via anti-human Fc, MCSP D3 as analyte
Description: (§1) For analyzing the avidity of the interaction of different anti-MCSP IgGs to human and cynomolgus MCSP D3 direct coupling of around 9,500 resonance units (RU) of the anti-Penta His antibody (Qiagen) was performed on a CM5 chip at pH 5.0 using the standard amine coupling kit (Biacore, Freiburg/Germany). Antigens were captured for 60 s at 30 nM with 10 μl/min respectively. IgGs were passed at a concentration of 0.0064-100 nM with a flowrate of 30 μl/min through the flow cells over 280 s. The dissociation was monitored for 180 s. Bulk refractive index differences were corrected for by subtracting the response obtained on reference flow cell. […] For affinity measurements IgGs were captured on a CM5 sensorchip surface with immobilized anti human Fc. Capture IgG was coupled to the sensorchip surface by direct immobilization of around 9,500 resonance units (RU) at pH 5.0 using the standard amine coupling kit (Biacore, Freiburg/Germany). IgGs are captured for 25 s at 10 nM with 30 μl/min. Human and cynomolgus MCSP D3 were passed at a concentration of 2-500 nM with a flowrate of 30 μl/min through the flow cells over 120 s. The dissociation was monitored for 60 s. […] Bulk refractive index differences were corrected for by subtracting the response obtained on reference flow cell.

[2] = biological target: T2, hu-MCSP(D3 domain)-avi-his; assay: as above
Description: as §1

cynomolgus MCSP D3 [3] = biological target: T1, cynomolgus MCSP D3; assay: SPR ProteOn XPR36, 25 C; IgG captured via anti-human F(ab')2, MCSP D3 as analyte
[4] = biological target: T2, hu-MCSP(D3 domain)-avi-his; assay: as above
cynomolgus MCSP D3 [5] = biological target: T1, cynomolgus MCSP D3; assay: SPR Biacore T200, 25 C; avidity: MCSP D3 captured via anti-Penta His, IgG as analyte
Description: as §1

[6] = biological target: T2, hu-MCSP(D3 domain)-avi-his; assay: as above
Description: as §1

cynomolgus MCSP D3 [7] = biological target: T1, cynomolgus MCSP D3; assay: ratio of ProteOn IgG KD, parent M4-3/ML2 against variant
[8] = biological target: T2, hu-MCSP(D3 domain)-avi-his; assay: as above
[9] = biological target: T3, human CEA expressed on tumor cells …; assay: cell-based or functional assay
[10] = biological target: T4, human CD3 expressed on Jurkat cells (human, UniProt P07766 23-207); assay: flow cytometry on Jurkat cells
T4 construct: CD3 complex on Jurkat T cells; also called CD3 on Jurkat cells; huCD3
T4 sequence (P07766 23-207 limits assumed): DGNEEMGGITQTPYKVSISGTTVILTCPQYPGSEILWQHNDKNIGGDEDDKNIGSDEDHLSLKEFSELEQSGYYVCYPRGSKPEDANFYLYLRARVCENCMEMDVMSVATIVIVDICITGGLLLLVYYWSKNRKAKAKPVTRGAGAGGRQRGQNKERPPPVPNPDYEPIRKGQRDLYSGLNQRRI
Description: Binding of the different bispecific constructs to CD3 on Jurkat cells (ATCC #TIB-152), and the respective tumor antigen on target cells, was determined by FACS. Briefly, cells were harvested, counted and checked for viability. 0.15-0.2 million cells per well (in PBS containing 0.1% BSA; 90 μl) were plated in a round-bottom 96-well plate and incubated with the indicated concentration of the bispecific constructs and corresponding IgG controls (10 μl) for 30 min at 4° C. […] After the incubation, cells were centrifuged (5 min, 350×g), washed with 150 μl PBS containing 0.1% BSA, resuspended and incubated for further 30 min at 4° C. with 12 μl/well of a FITC- or PE-conjugated secondary antibody. Bound constructs were detected using a FACSCantoII (Software FACS Diva). The “(scFv)₂” molecule was detected using a FITC-conjugated anti-His antibody (Lucerna, #RHIS-45F-Z). For all other molecules, a FITC- or PE-conjugated AffiniPure F(ab′)2 Fragment goat anti-human IgG Fcγ Fragment Specific (Jackson Immuno Research Lab #109-096-098/working solution 1:20, or #109-116-170/working solution 1:80, respectively) was used. Cells were washed by addition of 120 μl/well PBS containing 0.1% BSA and centrifugation at 350×g for 5 min. A second washing step was performed with 150 μl/well PBS containing 0.1% BSA. […] EC50 values were calculated using the GraphPad Prism software.
As a control, the equivalent maximum concentration of the corresponding IgGs and the background staining due to the labeled 2ndary antibody (goat anti-human FITC-conjugated AffiniPure F(ab′)2 Fragment, FcγFragment-specific, Jackson Immuno Research Lab #109-096-098) were assessed as well.

Row | Binder | Kd (cynomolgus MCSP D3 [1]) | Kd [2] | Kd (cynomolgus MCSP D3 [3]) | Kd [4] | Kd (cynomolgus MCSP D3 [5]) | Kd [6] | Fold increase over parent (cynomolgus MCSP D3 [7]) | Fold increase over parent [8] | EC50 of T cell-mediated killing (LDH release), LS-174T cells, human PBMCs E:T 10:1, 28 h [9] | EC50 of T cell-mediated killing (LDH release), MC38-huCEA cells, human PBMCs E:T 10:1, 24 h [9] | EC50 of T cell-mediated killing (LDH release), MKN-45 cells, human PBMCs E:T 10:1, 28 h [9] | binding result [10]
1 | Parental M4-3/ML2 IgG (antibody, V domains shown, Human IgG1 format, from mammalian production; also called M4-3 ML2 (parental); anti-MCSP antibody M4-3/ML2) VH: QVQLQESGPGLVKPSQTLSLTCTVSGGSITSGYYWNWIRQHPGKGLEWIGYITYDGSNNYNPSLKSRVTISRDTSKNQFSLKLSSVTAADTAVYYCADFDYWGQGTLVTVSS VL: DIQMTQSPSSLSASVGDRVTITCRASQGIRNYLNWYQQKPGKAPKLLIYYTSSLHSGVPSRFSGSGSGTDFTLTISSLQPEDFATYYCQQYSKLPWTFGQGTKVEIK | 11400 pM | 8600 pM | 2000 pM | 2000 pM | 12.3 pM | 9 pM | – | – | – | – | – | –
2 | M4-3(C1)/ML2(C5) IgG (antibody, V domains shown, Human IgG1) VH: QVQLQESGPGLVKPSQTLSLTCTVSGGSITSGYYWNWIRQHPGKGLEWIGYITFDGSNNYNPSLKSRVTISRDTSKNQFSLKLSSVTAADTAVYYCADFDYWGQGTLVTVSS VL: DIQMTQSPSSLSASVGDRVTITCRASRGIREYLNWYQQKPGKAPKLLIYYTGSLHSGVPSRFSGSGSGTDFTLTISSLQPEDFATYYCQQYSELPWTFGQGTKVEIK | 1300 pM | 1800 pM | 300 pM | 200 pM | 4.4 pM | 4.6 pM | 6.7 fold | 10 fold | – | – | – | –
3 | M4-3(C1)/ML2(E10) IgG (antibody, V domains shown, Human IgG1) VH: QVQLQESGPGLVKPSQTLSLTCTVSGGSITSGYYWNWIRQHPGKGLEWIGYITFDGSNNYNPSLKSRVTISRDTSKNQFSLKLSSVTAADTAVYYCADFDYWGQGTLVTVSS VL: DIQMTQSPSSLSASVGDRVTITCRASYGIRGYLNWYQQKPGKAPKLLIYYTSSLHSGVPSRFSGSGSGTDFTLTISSLQPEDFATYHCQQYSKLPWTFGQGTKVEIK | 3800 pM | 4600 pM | 600 pM | 500 pM | 4.4 pM | 6.3 pM | 3.3 fold | 4 fold | – | – | – | –
4 | 1 + 1 IgG-Crossfab light chain fusion (CH1A1A/V9) (anti-CEA/anti-huCD3) (bispecific antibody, also called “1+1 IgG Crossfab light chain (LC) fusion”) chain 1: DIQMTQSPSSLSASVGDRVTITCRASQDIRNYLNWYQQKPGKAPKLLIYYTSRLESGVPSRFSGSGSGTDYTLTISSLQPEDFATYYCQQGNTLPWTFGQGTKVEIKSSASTKGPSVFPLAPSSKSTSGGTAALGCLVKDYFPEPVTVSWNSGALTSGVHTFPAVLQSSGLYSLSSVVTVPSSSLGTQTYICNVNHKPSNTKVDKKVEPKSC chain 2: DIQMTQSPSSLSASVGDRVTITCKASAAVGTYVAWYQQKPGKAPKLLIYSASYRKRGVPSRFSGSGSGTDFTLTISSLQPEDFATYYCHQYYTYPLFTFGQGTKLEIKRTVAAPSVFIFPPSDEQLKSGTASVVCLLNNFYPREAKVQWKVDNALQSGNSQESVTEQDSKDSTYSLSSTLTLSKADYEKHKVYACEVTHQGLSSPVTKSFNRGECGGGGSGGGGSGGGGSGGGGSEVQLVESGGGLVQPGGSLRLSCAASGYSFTGYTMNWVRQAPGKGLEWVALINPYKGVSTYNQKFKDRFTISVDKSKNTAYLQMNSLRAEDTAVYYCARSGYYGDSDWYFDVWGQGTLVTVSSASVAAPSVFIFPPSDEQLKSGTASVVCLLNNFYPREAKVQWKVDNALQSGNSQESVTEQDSKDSTYSLSSTLTLSKADYEKHKVYACEVTHQGLSSPVTKSFNRGEC chain 3: not shown chain 4: DKTHTCPPCPAPEAAGGPSVFLFPPKPKDTLMISRTPEVTCVVVDVSHEDPEVKFNWYVDGVEVHNAKTKPREEQYNSTYRVVSVLTVLHQDWLNGKEYKCKVSNKALGAPIEKTISKAKGQPREPQVCTLPPSRDELTKNQVSLSCAVKGFYPSDIAVEWESNGQPENNYKTTPPVLDSDGSFFLVSKLTVDKSRWQQGNVFSCSVMHEALHNHYTQKSLSLSPGK | – | – | – | – | – | – | – | – | 1560 pM | ~3200 pM | 213 pM | binds
